Changes are numbered by the printed parent chain. Numbers in names are those of the source.
Key:
FcgRIIb [1] = molecular target: T1, FcgRIIb (human, UniProt P31994 43-217); test: SPR (Biacore); KD of the variant for FcgRIIaR divided by its KD for FcgRIIb
T1 construct: extracellular domain; Soluble extracellular domain with C-terminal His tag, expressed in FreeStyle293 cells; also called FcγRIIb; 2b; not shown: His tag at the C terminus
T1 sequence (looked up): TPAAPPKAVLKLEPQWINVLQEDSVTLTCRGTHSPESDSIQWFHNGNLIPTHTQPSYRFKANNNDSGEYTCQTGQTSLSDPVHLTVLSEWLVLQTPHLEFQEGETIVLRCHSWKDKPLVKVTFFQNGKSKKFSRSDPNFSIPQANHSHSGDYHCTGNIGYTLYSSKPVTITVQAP

FcgRIIaH = molecular target: T2, FcgRIIaH (human, UniProt P12318 34-217); test: SPR (Biacore), antibody captured on chip, FcgR extracellular domain as analyte
T2 construct: extracellular domain; Soluble extracellular domain with C-terminal His tag, expressed in FreeStyle293 cells; also called FcγRIIa H; FcgRIIa type H; not shown: His tag at the C terminus
T2 sequence (looked up): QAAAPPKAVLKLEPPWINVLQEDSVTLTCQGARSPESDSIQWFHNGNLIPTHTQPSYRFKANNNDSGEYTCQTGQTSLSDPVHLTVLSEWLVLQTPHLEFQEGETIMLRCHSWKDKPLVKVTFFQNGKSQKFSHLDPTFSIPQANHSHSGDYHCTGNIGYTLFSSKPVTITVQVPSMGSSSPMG

FcgRIIb [2] = molecular target: T1, FcgRIIb; test: as above
FcgRIIaR = molecular target: T3, FcgRIIaR (human, UniProt P12318 34-217); test: as above
T3 construct: extracellular domain; Soluble extracellular domain with C-terminal His tag, expressed in FreeStyle293 cells; also called FcγRIIa R; FcgRIIa type R; not shown: His tag at the C terminus
T3 sequence (looked up): T2 sequence (looked up) with H134R

FcγRIIIa [3] = molecular target: T4, FcγRIIIa (human, UniProt P08637 17-208); test: ratio of SPR KDs: KD of GpH7-TA7/GpH7-B78/GpL16-k0 divided by KD of this antibody
T4 construct: extracellular domain; also called FcgRIIIa; CD16A; not shown: His tag attached to the C terminus
Description: First, it was considered which H chain should be introduced with Y296W. GpH7-TA52 (SEQ ID NO: 44) resulting from the introduction of the mutation Y296W into GpH7-TA7 was constructed, and expressed and prepared in combination with GpH7-B78 according to the method described in Reference Example 1. Furthermore, GpH7-TA58 (SEQ ID NO: 45) resulting from the introduction of Y296W into GpH7-B78 was constructed, and expressed and prepared in combination with GpH7-TA22 according to the method described in Reference Example 1. To assess the effects of combinations with Y296W, the prepared antibodies were compared for the FcγRIIIa-binding activity according to the method described in Reference Example 2 (Table 16).
(§1) Analysis of interaction between objective antibody and the FcγR was carried out using Biacore T100 (GE Healthcare). HBS-EP+ (GE Healthcare) was used as the running buffer, and the measurement temperature was set to 25° C. Chips produced by immobilizing the antigen peptide by the amine coupling method to a Series S Sencor Chip CM5 (GE Healthcare), or alternatively, chips produced by allowing preliminarily biotinylated antigen peptides to interact with and immobilize onto a Series S Sensor Chip SA (certified) (GE Healthcare) were used. Antibodies of interest were captured onto an antigen peptide-immobilized chip, and allowed to interact to each FcγR diluted with running buffer. To regenerate and repeatedly use the chip, the antibodies captured on the chip were washed off by reacting 10 mM glycine-HCl, pH 1.5.
T4 sequence (P08637 17-208): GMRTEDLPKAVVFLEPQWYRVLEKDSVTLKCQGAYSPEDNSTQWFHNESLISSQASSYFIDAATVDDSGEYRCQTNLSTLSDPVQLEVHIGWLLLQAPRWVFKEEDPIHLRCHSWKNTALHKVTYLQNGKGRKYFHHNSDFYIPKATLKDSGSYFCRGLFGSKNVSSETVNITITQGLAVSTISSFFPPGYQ

FcγRIIIa [4] = molecular target: T4, FcγRIIIa; test: ratio of SPR KDs: KD of GpH7-A5/GpH7-B3/GpL16-k0 divided by KD of this antibody
Description: The prepared antibodies were compared for the FcγRIIIa-binding activity using, as an indicator, KD for FcγRIIIa that was determined according to the method described in Reference Example 2.
as §1
(§2) Specifically, to calculate association rate constant ka (L/mol/s) and dissociation rate constant kd (1/s), sensorgrams obtained by measurement were processed for global fitting by Biacore Evaluation Software using 1:1 Langmuir binding model and dissociation constant KD (mol/1) was calculated from the resulting values.

FcγRIIIa [5] = molecular target: T4, FcγRIIIa; test: ratio of SPR KDs: KD of GpH7-G1d/GpL16-k0 divided by KD of this antibody
Method in brief: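 Biacore SPR at 25 °C in HBS-EP+; antibodies captured on antigen peptide-immobilized CM5 or SA chips, FcγRIIIa flowed as analyte, regeneration with 10 mM glycine-HCl pH 1.5. KD from ka and kd by global 1:1 Langmuir fitting; values are the reference antibody's KD divided by this antibody's KD.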

FcγRIIIa [6] = molecular target: T4, FcγRIIIa; test: ratio of SPR KDs: KD of GpH7-TA7/GpH7-B78/GpL16-k0 divided by KD of this antibody; remark: listed apart in the source
Description: as §1, §2

FcγRIa = FcγRIa (human, UniProt P12314 16-292); test: SPR (Biacore), relative binding
Sequence of FcγRIa (P12314 16-292): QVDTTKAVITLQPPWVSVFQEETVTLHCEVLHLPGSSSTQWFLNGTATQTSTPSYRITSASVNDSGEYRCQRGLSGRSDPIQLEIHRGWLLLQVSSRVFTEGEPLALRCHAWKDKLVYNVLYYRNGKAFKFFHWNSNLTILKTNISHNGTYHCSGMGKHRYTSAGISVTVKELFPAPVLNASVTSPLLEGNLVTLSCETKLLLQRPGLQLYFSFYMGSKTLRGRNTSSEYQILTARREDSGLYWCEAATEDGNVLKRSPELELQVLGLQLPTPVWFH

FcγRIIIa [7] = molecular target: T5, FcγRIIIa (human, UniProt P08637 17-208); test: SPR (Biacore); KD of GpH7-TA7/GpH7-B78/GpL16-k0 for FcγRIIIa divided by the KD of this antibody
T5 construct: extracellular domain; Soluble extracellular domain with a C-terminal His tag, expressed in FreeStyle293 cells and used as the analyte in Biacore; also called FcgRIIIa; CD16A; not shown: His tag attached to the C terminus
Description: Then, K334G was also assessed in the same manner. GpH7-TA40 (SEQ ID NO: 47) resulting from the introduction of K334G into GpH7-TA7 was constructed, and expressed and prepared in combination with GpH7-B78 according to the method described in Reference Example 1. Furthermore, GpH7-TA50 (SEQ ID NO: 48) resulting from the introduction of K334G into GpH7-B78 was constructed, and expressed and prepared in combination with GpH7-TA7 according to the method described in Reference Example 1. To assess the effect of combinations with K334G, the prepared antibodies were compared for the FcγRIIIa binding according to the method described in Reference Example 2 (Table 18).
as §1, with “To regenerate and repeatedly use the chip, the antibodies captured on the chip were washed off by reacting 10 mM glycine-HCl, pH 1.5.” left out
T5 sequence (P08637 17-208): as the sequence (P08637 17-208) above

FcγRIIIa [8] = molecular target: T4, FcγRIIIa; test: ratio of SPR KDs: KD of GpH7-TA22/GpH7-B78/GpL16-k0 divided by KD of this antibody
Description: Then, GpH7-TA54 (SEQ ID NO: 46) resulting from the introduction of Y296W into GpH7-TA22 was constructed, and expressed and prepared in combination with GpH7-B78 according to the method described in Reference Example 1. Furthermore, GpH7-TA58 (SEQ ID NO: 45) resulting from the introduction of Y296W into GpH7-B78 was constructed, and expressed and prepared in combination with GpH7-TA22 according to the method described in Reference Example 1. To assess the effect of combination with Y296W, the prepared antibodies were compared for the FcγRIIIa-binding activity according to the method described in Reference Example 2 (Table 17).
as §1

B1: IL6R-AP002/IL6R-BP257/IL6R-L (antibody, human IgG1, kappa)
heavy 1: QVQLQESGPGLVKPSETLSLTCAVSGHSISHDHAWSWVRQPPGEGLEWIGFISYSGITNYNPSLQGRVTISRDNSKNTLYLQMNSLRAEDTAVYYCARSLARTTAMDYWGEGTLVTVSSASTKGPSVFPLAPSSKSTSGGTAALGCLVKDYFPEPVTVSWNSGALTSGVHTFPAVLQSSGLYSLSSVVTVPSSSLGTQTYICNVNHKPSNTKVDKKVEPKSCDKTHTCPPCPAPDLLGDDSVFLFPPKPKDTLMISRTPEVTCVVVDVSDEDGEVKFNWYVDGVEVHNAKTKPREEQYNSTYRVVSVLTVLHQDWLNGKEYKCKVSNKALPRPIEKTISKAKGQPREPQVYTLPPSRKELTKNQVSLTCLVKGFYPSDIAVEWESNGQPENNYKTTPPVLDSDGSFFLYSKLTVDKSRWQQGNVFSCSVMHEALHNRYTQKSLSLSP
heavy 2: B1 heavy 1 with S241E, K358D, R437H, K441E
light: not shown
notes: Heterodimerized antibody (two different H chains, same variable region), S239E in one H chain only
KD(IIaR)/KD(IIb) (FcgRIIb [1]): 27.7
Relative KD (KD of IL6R-B3/IL6R-L divided by KD of the variant) (FcgRIIaH): 0.2
Relative KD (KD of IL6R-B3/IL6R-L divided by KD of the variant) (FcgRIIb [2]): 657
Relative KD (KD of IL6R-B3/IL6R-L divided by KD of the variant) (FcgRIIaR): 8.3

B2: GpH7-TA7/GpH7-B78/GpL16-k0 (antibody, human IgG1, kappa)
heavy 1: QVQLVQSGAEVKKPGASVTVSCKASGYTFTDYEMHWIRQPPGEGLEWIGAIDPKTGDTAYSESFQDRVTLTADKSTSTAYMELSSLTSEDTAVYYCTRFYSYTYWGQGTLVTVSSASTKGPSVFPLAPSSKSTSGGTAALGCLVKDYFPEPVTVSWNSGALTSGVHTFPAVLQSSGLYSLSSVVTVPSSSLGTQTYICNVNHKPSNTKVDKKVEPKSCDKTHTCPPCPAPEYLWGPSVFLFPPKPKDTLMISRTPEVTCVVVDVSHEDPEVKFNWYVDGVEVHNAKTKPREEQYNATYRVVSVLTVLHQDWLNGKEYKCKVSNKALPAPIEKTISKAKGQPREPQVYTLPPSRKELTKNQVSLTCLVKGFYPSDIAVEWESNGQPENNYKTTPPVLDSDGSFFLYSKLTVDKSRWQQGNVFSCSVMHEALHNRYTQKSLSLSP
heavy 2: B2 heavy 1 with Y232L, W234G, S237D, A296S, A328L, I330E, K354D, R433H, K437E
light: DIVMTQSPLSLPVTPGEPASISCQASESLVHSNRNTYLHWYLQKPGQSPQLLIYKVSNRFSGVPDRFSGSGSGTDFTLKISRVEAEDVGVYYCSQNTHVPPTFGQGTKVEIERTVAAPSVFIFPPSDEQLKSGTASVVCLLNNFYPREAKVQWKVDNALQSGNSQESVTEQDSKDSTYSLSSTLTLSKADYEKHKVYACEVTHQGLSSPVTKSFNRGEC
notes: Anti-glypican-3 IgG1 heterodimer; L234Y/G236W/S298A in H1, S239D/A330L/I332E in H2
KD ratio (FcγRIIIa [3]): 1 fold
KD ratio 2 (FcγRIIIa [4]): 347 fold
KD ratio 1 (FcγRIIIa [5]): 261 fold
KD ratio (FcγRIIIa [6]): 1 fold

B3: GpH7-B15/GpL16-k0 (antibody, human IgG1, kappa)
heavy: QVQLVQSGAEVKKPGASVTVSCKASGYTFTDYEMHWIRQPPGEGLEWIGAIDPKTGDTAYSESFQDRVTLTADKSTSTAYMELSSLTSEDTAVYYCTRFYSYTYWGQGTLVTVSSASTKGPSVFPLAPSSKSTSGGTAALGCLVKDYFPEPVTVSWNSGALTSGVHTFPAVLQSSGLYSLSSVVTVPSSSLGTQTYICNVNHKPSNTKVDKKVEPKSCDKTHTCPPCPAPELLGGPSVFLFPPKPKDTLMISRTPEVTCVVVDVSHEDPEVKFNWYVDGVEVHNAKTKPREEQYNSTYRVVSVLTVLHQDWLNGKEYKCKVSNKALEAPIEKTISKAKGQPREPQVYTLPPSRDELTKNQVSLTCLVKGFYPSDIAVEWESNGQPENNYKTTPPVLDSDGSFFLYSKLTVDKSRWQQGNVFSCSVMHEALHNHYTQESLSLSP
light: B2 light
notes: P329E in both H chains
FcγRIa-binding activity relative to GpH7-A5/GpH7-B3/GpL16-k0 (FcγRIa): ≤ 0.2 fold

B4: GpH7-B14/GpL16-k0 (antibody, human IgG1, kappa)
heavy: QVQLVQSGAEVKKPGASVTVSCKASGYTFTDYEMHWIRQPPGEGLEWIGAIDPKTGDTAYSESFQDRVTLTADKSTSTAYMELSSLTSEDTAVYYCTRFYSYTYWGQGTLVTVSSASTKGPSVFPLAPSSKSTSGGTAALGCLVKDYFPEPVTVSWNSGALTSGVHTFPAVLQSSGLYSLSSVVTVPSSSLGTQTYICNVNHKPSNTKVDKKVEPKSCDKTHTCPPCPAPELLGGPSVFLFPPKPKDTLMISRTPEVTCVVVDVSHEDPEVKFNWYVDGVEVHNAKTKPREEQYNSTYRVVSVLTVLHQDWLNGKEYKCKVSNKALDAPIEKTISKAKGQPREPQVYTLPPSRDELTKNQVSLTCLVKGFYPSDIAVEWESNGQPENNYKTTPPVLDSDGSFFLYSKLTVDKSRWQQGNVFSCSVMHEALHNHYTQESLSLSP
light: B2 light
notes: P329D in both H chains
FcγRIa-binding activity relative to GpH7-A5/GpH7-B3/GpL16-k0 (FcγRIa): ≤ 0.2 fold

B5: GpH7-TA40/GpH7-B78/GpL16-k0 (antibody, human IgG1, kappa)
heavy 1: B2 heavy 1 with K332G
heavy 2: B2 heavy 1 with Y232L, W234G, S237D, A296S, A328L, I330E, K354D, R433H, K437E
light: B2 light
notes: Heterodimerized anti-glypican-3 IgG1 antibody; K334G is in the same H chain as L234Y/G236W/S298A; also called TA40/B78
KD ratio (FcγRIIIa [7]): 0.5

B6: GpH7-TA7/GpH7-TA50/GpL16-k0 (antibody, human IgG1, kappa)
heavy 1: B2 heavy 1
heavy 2: B2 heavy 1 with Y232L, W234G, S237D, A296S, A328L, I330E, K332G, K354D, R433H, K437E
light: B2 light
notes: Heterodimerized anti-glypican-3 IgG1 antibody; K334G is in the H chain other than the one with L234Y/G236W/S298A; also called TA7/TA50
KD ratio (FcγRIIIa [7]): 1.2

B7: GpH7-TA22/GpH7-B78/GpL16-k0 (antibody, human IgG1, kappa)
heavy 1: B2 heavy 1 with S237D
heavy 2: B2 heavy 1 with Y232L, W234G, S237D, A296S, A328L, I330E, K354D, R433H, K437E
light: B2 light
notes: Anti-glypican-3 IgG1 heterodimer; L234Y/G236W/S239D/S298A in H1, S239D/A330L/I332E in H2
KD ratio (FcγRIIIa [8]): 1 fold
KD ratio (FcγRIIIa [6]): 3.2 fold
